Biological target: ACE-2 receptor on the surface of Vero E6 cells (African green monkey (endogenous in Vero E6))
Test: flow cytometry on cells; about 10^6 Vero-E6 cells blocked with FACS buffer and 5% normal mouse serum, incubated with RBD (8 ug/mL in the methods; different concentrations in the results) 2 h at 37 C; detected with rabbit monoclonal anti-S1 and Alexa Fluor 488 anti-rabbit IgG; percent of positive cells

Recombinant SARS-CoV-2 Spike RBD (Pro330-Ser530), purified (from UniProt P0DTC2 330-530) (domain or fragment)
percent of cells bound: 60%

commercially available recombinant RBD expressed in insect cells (Cat No. Z03479, GenScript) (from UniProt P0DTC2) (domain or fragment)
percent of cells bound: 78%

Reference: paper PMC9397949
